{"source": "patent US20130252987A1", "about": "“METHOD OF REGULATING PLASMA LIPOPROTEINS” (MCMASTER UNIVERSITY, priority 2010, published 2013)", "molecules": {"B1": {"name": "human resistin: recombinant lyophilized purified human resistin (Calbiochem); cysteine-rich cytokine, single 12 kDa band (protein)", "chain": "KTLCSMEEAINERIQEVAGSLIFRAISSIGLECQSVTSRGDLATCPRGFAVTGCTCGSACGSWDVRAETTCHCQCAGMDWTGARCCRVQP"}}, "key": {"[1]": {"test_system": "HepG2 cells", "assay": "Oil-Red-O staining of neutral lipid", "format": "cell-based, human", "conditions": "50 ng/mL, 24 hours, versus untreated", "description": "Cells were stained with Oil-Red-0 to examine the amount of neutral lipid accumulation in the cells as described by Ferre et al. (Am. J. Physiol Gastrointest. Liver Physiol. 296:G553-G562). Briefly, dishes were washed with cold phosphate-buffered saline and fixed in 10% neutral formalin. After 2 changes of propylene glycol, Oil-Red-0 was added with agitation for 7 minutes, followed by washing in 85% propylene glycol. The dishes were then rinsed in distilled water and counterstained with hematoxylin. For each dish, 3 images were photographed, and a representative image is shown.\nTo determine if the deleterious effects of human resistin extend not only to increased secretion of apoB-containing lipoproteins by human hepatocytes, but also to increased hepatocyte lipid content, as the two processes frequently occur together in such conditions as obesity, insulin resistance and type 2 diabetes mellitus. Oil-Red-O/hematoxylin staining of HepG2 cells either untreated, treated with 100 μM oleate for 24 hours as a positive control, or treated with 50 ng/mL human resistin for 24 hours was performed. […] The increased cell neutral lipid content with resistin treatment was similar in magnitude to that observed with 100 μM oleate treatment."}, "[2]": {"test_system": "microsomal triglyceride transfer protein (MTP)", "assay": "MTP protein expression and activity assay", "format": "cell-based, human", "conditions": "50 ng/mL, 24 hours, HepG2 cells", "description": "Cell monolayers were washed twice with ice-cold PBS and once with 5 ml of 1 mM Tris-HCl, pH 7.6, 1 mM EGTA, and 1 mM MgCl2 at 4° C. Cells were then incubated for 2 min at room temperature in 5 ml of ice-cold 1 mM Tris-HCl, pH 7.6, 1 mM EGTA, and 1 mM MgCl2. The buffer was aspirated, and 0.5 ml of the same buffer was added to cells. Cells were scraped and collected in ice-cold tubes, vortexed, and centrifuged (SW55 Ti rotor, 50,000 rpm, 10° C., 1 h), and supernatants were used for MTP assay using the MTP fluorometric activity assay kit (Chylos Inc., NY). The triglyceride transfer activity of MTP is presented as % transfer/h/mg protein.\nFurther tests were conducted to investigate mechanisms by which human resistin stimulated increased hepatocyte expression and secretion of apoB protein. […] It was first determined whether human resistin inhibits apoB degradation through the classic proteosome-dependent degradation pathway by adding the optimal dose of human resistin (50 ng/mL) to the proteosome-dependent inhibitor of apoB degradation, lactacystin, at the optimal dose and time (10 μM, 24 hours). An increase in the cellular expression and secretion of apoB in HepG2 cells with lactacystin was observed, confirming its apoB degradation properties (FIG. 8A.). […]"}, "[3]": {"test_system": "primary human hepatocytes", "assay": "LDL receptor protein in primary human hepatocytes", "format": "cell-based", "conditions": "50 ng/mL, 24 hours", "description": "Cryopreserved plateable human hepatocytes, metabolism qualified from multiple normal human donors, were obtained from CellzDirect (Invitrogen, NC). The cells were seeded at 1×10^6 cells/well in a 6-well collagen coated plate according to the manufacturer's instructions (CellzDirect, Invitrogen, NC). The cells were incubated at 37° C. with 5% CO2 for 4 hours to allow the cells to adhere. The plating media was replaced and the cells incubated for 16 hours prior to human resistin 50 ng/mL treatment for 24 hours.\nTo determine if the above findings in immortalized HepG2 cells are relevant to humans, primary human hepatocytes […] (Invitrogen) were treated with human resistin at the optimum 50 ng/mL dose for 24 hours. […] While the magnitude of the inhibitory effect of human resistin on LDL receptor protein expression was not as large as with HepG2 cells, this was expected as primary hepatocytes are not as metabolically active as cultured hepatoma HepG2 hepatocytes."}, "[4]": {"test_system": "HepG2 cells", "assay": "gas chromatography of hepatocyte lipids", "format": "cell-based, human", "conditions": "50 ng/mL, 24 hours", "description": "Lipids from HepG2 cell extracts were quantified by gas chromatography (GC) as described in Sahoo et al. (J. Lipid Res. 45:1122-1131). Briefly, cell extracts were incubated with phospholipase C (Sigma, ON) to remove polar head groups, then extracted in the presence of internal standard by the method of Folch et al. (J Biol Chem 226:497-509). Extracted lipids were passed through a sodium sulfate column to remove aqueous contaminants, and derivatized with Sylon BFT (Supelco, ON) to cap reactive hydroxyl and carboxyl groups. Derivatized lipids were dissolved in hexane and injected onto a Zebron ZB-5 column (Phenomenex, Torrance, Calif.) in an Agilent 6890 GC instrument. Lipoprotein Profiles. HepG2 media from 6-10 cm plates was collected and concentrated using an Amicon Centriprep concentrator 50 K and lipoprotein classes separated by fast protein liquid chromatography (FPLC) on a Superose 6 10/30 gel filtration column (Amersham, UK) followed by inline post-column reaction with either Infinity Triglyceride or Infinity Cholesterol reagent (Thermo Scientific, West Palm Beach, Fla.) and measurement of absorbance @ 500 nm.\nTo quantify the hepatocyte lipid changes induced by human resistin, gas chromatography (GC) analyses of lipids extracted from harvested hepatocytes either untreated or treated with human resistin (50 ng/mL) for 24 hours was performed."}, "[5]": {"test_system": "HepG2 cells", "assay": "cell viability, tryphan blue staining", "format": "cell-based, human", "conditions": "50 ng/mL or 100 ng/mL, 24 or 48 hours", "description": "Cell viability was determined with 0.4% tryphan blue (Sigma-Aldrich, ON) staining and calculated using the following formula: % Cell Viability=(number of unstained (living) cells/Total number of cells)×100.\nThe next question was whether this amount of human resistin is toxic to hepatocytes. Tryphan blue staining of HepG2 cells upon 50 ng/mL of resistin treatment to determine cell viability was performed."}}}
{"molecule": "B1", "values": [{"measurement": "hepatocyte neutral lipid content", "setting": "[1]", "result": "clear increase"}, {"measurement": "MTP activity", "setting": "[2]", "result": "significant increases"}, {"measurement": "cellular MTP protein expression", "setting": "[2]", "result": "significant increases"}, {"measurement": "LDL receptor protein versus untreated control cells", "setting": "[3]", "result": "significantly reduced"}, {"measurement": "increase in cholesteryl ester content", "setting": "[4]", "result": 18, "unit": "%"}, {"measurement": "increase in free cholesterol content", "setting": "[4]", "result": 3, "unit": "%"}, {"measurement": "increase in triglyceride content", "setting": "[4]", "result": 24, "unit": "%"}, {"measurement": "hepatocyte viability", "setting": "[5]", "result": "no marked reduction"}]}
